# Measured values from PMC4046817.
# Key:
# Conditions in all cases: EMSA/footprinting in LrpB binding buffer (ref. 27); composition, pH and temperature not given
# [1] = biological target: T1, Ss-LrpB (Sulfolobus solfataricus P2?) (UniProt Q7LX67); assay: EMSA
# T1 sequence: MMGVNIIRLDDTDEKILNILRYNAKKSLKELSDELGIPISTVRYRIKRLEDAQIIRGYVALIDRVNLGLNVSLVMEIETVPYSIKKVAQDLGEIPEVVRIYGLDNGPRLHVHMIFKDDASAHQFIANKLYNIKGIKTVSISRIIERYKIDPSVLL
# [2] = biological target: T1, Ss-LrpB (Sulfolobus solfataricus P2?); assay: in-gel Cu-OP footprinting
# [3] = system: Ss-LrpB (Sulfolobus solfataricus P2?); assay: EMSA
Substance,binding [1],also measured
AATCTTTCATTCCTCCTCTTATATGGATTATTACTGGTTTGTTTTCTTTTTCGGCTATTTGCAAAAATTTCTCCAGAACTTCTATTTGTTTTTTCCTAAGATCCTCGTCTTTTATCCAAAAGTAATCTAAACCGACTTCACTTATTATCTTCCCATACCTAGTTAATTCCAAACACTTATCAATCTCATTAACCTTATCCTTTACAAATTCTGGATG (double strand) [Sso0046 fragment],no binding,
AGTATCTCGTTAATAACATCGTCTTTGTTACCTTCAAAGAACTCTGCATATATTATTTCGTCGTAAAGAATTAGATATCCTTTTGCACTAGTCAGCAGAGAATATTTATATCCTCTACATCCCTCACAATAACCTCTAACCTCTTTAACTAGTAAATGTTCAATCACAGATAGTTTAATATTTCCTTTTTCAATTATTTCTATATCATTATCTTTTTTAACTGATAATCTCTTAGCTAAATAATAAAGTGCGACCTGA (double strand) [Ssot36 fragment],no binding,
ATATGTATATTCAAGCCATTTAGATGAGATAAGGAAAAATAAAGAATTCTATGATATGATTGCAGAGATACTACAAAGGTATTACAAAAAAATAGGCATAGAGAATGTGAATCAGTTGATACTAACTACTATAAAATAGTTCGTATGTCGAACCTTTCTTTACCGAATTCATTATATATCC (double strand) [Sso6904 fragment],no binding,
CCTTTACTCTTCATGCGACCAATTTTAGTTGTAATTAATTTAACAATTTCTGGTCGCAAGGATTTTATGTTAAATTGAAACATTGGGTATCATTTATAAACGTTCAATTATTATAGAAAGATTCGTTTCGGTCGCATTGAGACTCGAACTTTCACACTTTTAAACAACTTCATAAAAACGAAGTTTGAAGTTCTCTATTTGATAATAATGTTTCACTGATTTCGTATCATATCGAAAAATATTTTTTATCTCTTATCGCTCTCCTTTCATC (double strand) [CRISPR4 (CRISPR B leader) fragment],,binding [2]: binds; Kd [1]: 0.063 µM
CGCATTAGAAGTAAAGAACGTAAATACTATGGCAGGAGTGTTATTACCAGCAAGGAACTTGGCATTAGCTAGGGAAATGGGGGCCGATGCGGTAGTTTCAGCTTGTCCTGGTTGTCACTATTCCTTATCTAGAACTCAATATTATCTGACTAAATACCCCAAATTAAGAGAAAAGACTAATATGTATTTAGAAAAAATGGGTACTAAGAATTATGATCTAAAGTTAATGCTAGTTCACGCTGTTGAATATATTTACAATA (double strand) [Sso1135 fragment],binds,
CRISPR4 (CRISPR B leader) fragment,,Kd [3]: 0.063 µM
Sso0049 Box 1 fragment,,Kd [3]: 0.15 µM
TGGAGAAGATGACGAAATGGTATTAAAGGAACATTCAATTACCTTATGTGATACAATAAAAAGGATGGGAGGGGATTGCGAGTTGCATATAATTCCGAAAATGAAGCACACACCTTTAGGGCAACAGTATCAAACAATTTGGAGTATAATTGAGGATTGGATAAAGAGGAATAGTTCTAGTTTTTAACCAGTTTGTGCCCAGTTCTCATACCTCATGAGTTCATTTCTACCCTTATCTTTAGCCACAATGTCTAGA (double strand) [Sso1433 fragment],binds,
